Entries after “also recorded” stand apart in the source; their conditions may differ.
Key:
HPSE1 = conditions: ref Simeonovic et al., 2013; cited from earlier work
Source text: Other HPSE1 inhibitors have been tested both in vitro and in vivo for their application in glomerular diseases as well. Administration of HPSE1 substrates, such as soluble HS, heparin, and low-molecular-weight heparins, all comprise the potential to reduce albuminuria. One example of such class of drugs is sulodexide, which is a highly purified mixture that consists for 80% of low-molecular-weight heparin and for 20% of dermatan sulfate ([Poplawska et al., 1997]).

[1] = biological target: T1, recombinant active human HPSE1 (Homo sapiens, UniProt Q9Y251); test: HPSE1 activity assay (inhibition of HPSE1 activity; commercial kit and in-house HS-coated plate assay); format: biochemical; conditions: for inhibition of HPSE1 activity, first screening experiment of all 30 HPSE2 peptides: data not shown, recombinant HPSE1
T1 construct: recombinant active human HPSE1; purchased Bio-techne 7570-GH-005
T1 sequence (Q9Y251 158-543 limits assumed): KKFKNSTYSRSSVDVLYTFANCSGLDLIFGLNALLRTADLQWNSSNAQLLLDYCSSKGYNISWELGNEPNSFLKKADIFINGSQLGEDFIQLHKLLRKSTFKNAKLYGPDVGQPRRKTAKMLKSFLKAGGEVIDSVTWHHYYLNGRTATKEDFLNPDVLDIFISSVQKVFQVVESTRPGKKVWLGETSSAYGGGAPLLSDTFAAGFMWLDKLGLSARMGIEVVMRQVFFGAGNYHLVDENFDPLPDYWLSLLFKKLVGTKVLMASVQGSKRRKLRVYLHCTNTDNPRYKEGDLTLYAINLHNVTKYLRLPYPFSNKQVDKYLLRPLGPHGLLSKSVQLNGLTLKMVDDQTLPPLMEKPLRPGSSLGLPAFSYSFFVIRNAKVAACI
T1 sequence (Q9Y251 36-109 limits assumed): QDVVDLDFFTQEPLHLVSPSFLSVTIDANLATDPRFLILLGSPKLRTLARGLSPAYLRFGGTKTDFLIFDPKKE
Protocol: The inhibition of HPSE1 activity by HPSE2 protein and peptides was determined by the commercially available HPSE1 assay kit and an in-house developed HPSE1 activity assay, which was optimized by the use of recombinant active human HPSE1 (Bio-techne, Abingdon, United Kingdom, Cat#7570-GH-005). The in-house developed activity assay was performed as described previously ([Buijsers et al., 2020]). In short, Nunc maxisorp flat bottom 96 plates (Thermo scientific, Breda, Netherlands) were coated with 10 μg/mL heparan sulfate from bovine kidney (HSBK) (Sigma-Aldrich, Zwijndrecht, Netherlands) in optimized HS coating buffer, overnight in a humidified chamber at RT. Subsequently, plates were blocked for minimal 2 h with 1% bacto-gelatin (Difco laboratories, Detroit, Michigan, United States) in PBS at RT whereupon HPSE1 inhibitors were added to the plate with a standard amount of recombinant HPSE1 in HPSE1 buffer. Remaining HSBK was detected with primary mouse […] IgM HS antibody JM403 (Amsbio, Abingdon, United Kingdom, cat. No. #370730-S, RRID: AB_10890960, 1 μg/mL in PBST) for 1 h at RT. Subsequently, plates were incubated with secondary goat anti-mouse IgM HRP antibody (Southern Biotech, Uden, Netherlands, cat. No. #1020–05, RRID: AB_2794201, dilution 1:10,000 in PBST) for 1 h at RT. Finally, 3,3′,5,5′-tetramethylbenzidine (TMB) substrate (Invitrogen, Breda, Netherlands) was added and reaction was stopped by addition of 2 M sulfuric acid, and absorbance was measured at 450 nm.

mice induced with LPS = conditions: LPS co-injected with protein compared to LPS alone, upon 2 h; ref Kiyan et al., 2019; cited from earlier work
Protocol: Since HPSE1 is also involved in inflammation ([Goodall et al., 2014]; [Lever et al., 2014]), the increased HPSE1 and TNF-α expression might be prevented if HPSE2 is administered concomitant with LPS at induction of experimental glomerulonephritis. This effect has been shown previously by Kiyan et al. in the CLP sepsis mouse model. They reported decreased plasma levels of IL-6 and TNF-α in mice induced with LPS co-injected with full-length HPSE2 protein compared to LPS alone already upon 2 h. Unfortunately, no assessment of cytokine or HPSE1 mRNA expression in the renal cortex or other tissues ...

[2] = tested on: STZ-induced diabetic nephropathy in wt DBA/2J mice; test: Streptozotocin (STZ)-induced type 1 diabetic nephropathy mouse model; format: in vivo
Protocol: Experimental streptozotocin (STZ)-induced type 1 diabetes was induced in six-to eight-week-old wt DBA/2J mice (Charles River, Germany). Mice were first fasted for 4 h whereafter the mice were injected i. p. with 50 mg/kg STZ (Sigma-Aldrich Chemie, Zwijndrecht, Netherlands) in 250 mM sodium citrate buffer (pH 4.5), whereas controls were injected with sodium citrate buffer alone for 5 consecutive days. Blood glucose levels were measured twice a week using the ACCU-CHEK Aviva Blood Glucose Meter (Roche Diagnostics, Almere, Netherlands) to monitor that blood glucose levels would not raise above 25 mmol/L. Mice were implanted under the skin half an insulin pellet (LinShin Canada, Toronto, Canada) when their blood glucose level did raise above 25 mmol/L. The mice were treated with HPSE2 protein via continuous s. c infusion with an osmotic mini pump 8 weeks after the final injection with STZ for a duration of 4 weeks. Mice were sacrificed 12 weeks after induction of diabetes.
(§1) Kidneys were collected and snap frozen in liquid nitrogen and urine was collected after 18 h housing in metabolic cages upon termination. Urinary albumin was measured by radial immunodiffusion (Mancini) as described previously ([Garsen et al., 2016a]). Blood urea nitrogen (BUN) and urinary/plasma creatinine concentrations were determined routinely in our clinical diagnostic facility.
(§2) RNA was isolated from the kidney cortex using RNeasy mini kit (Qiagen) and 1 µg of RNA was reverse transcribed into cDNA using the Transcription First Strand cDNA synthesis kit (Roche, Woerden, Netherlands) according to manufacturer’s instructions. Quantitative PCR was performed with SYBR Green (Roche, Woerden, Netherlands) on a CFX 96 C1000 Thermal Cycler (Bio-rad, Lunteren, Netherlands) to determine expression levels. Data was analysed using glyceraldehyde-3-phosphate dehydrogenase (GAPDH) as housekeeping gene and by making use of the delta-delta CT method.

[3] = tested on: LPS-induced glomerulonephritis in wt C57Bl/6J mice; test: LPS-induced glomerulonephritis mouse model; format: in vivo; conditions: for cortical IL-6 mRNA expression: Figure 5F, IL-6 not detectable in control mice
Protocol: Experimental LPS-induced glomerulonephritis was induced in eight-to twelve-week-old wt C57Bl/6J mice by an i. p. injection with 80 µg LPS (O111:B4; Sigma-Aldrich Chemie, Zwijndrecht, Netherlands) as described previously ([Garsen et al., 2016a]). The mice were treated with heparanase 2 (HPSE2) protein and an equal mix of HPSE2 peptides (Thermo Fisher Scientific, Breda, Netherlands) 381–410, 391–420, and 401–430, amino acids respectively, via repeated i. v injection with 12 h intervals starting 6 h after LPS injection. Mice were sacrificed 48 h after LPS injection.
as §1, §2

## PI-88
HPSE1
  HPSE1 inhibition in animal models for glomerular diseases, such as DN: effective HPSE1 inhibitor

## FLWLNTLGMLANQGIDVVIRHSFFDHGYNH [HPSE2 peptide 401–430, HPSE2-derived peptide, AA region 401–430]
[1]
  inhibition of HPSE1 activity, first screening experiment of all 30 HPSE2 peptides: showed great promise as inhibitor of HPSE1 activity
[1]; listed as 401–430
  inhibition of HPSE1 activity, first screening experiment of all 30 HPSE2 peptides: most effective

## GVVTTSAGGTNNLSDSYAAGFLWLNTLGML [HPSE2 peptide 381–410, HPSE2-derived peptide, AA region 381–410]
[1]
  inhibition of HPSE1 activity, first screening experiment of all 30 HPSE2 peptides: showed great promise as inhibitor of HPSE1 activity; also recorded: most effective

B1: HPSE2 protein: His-tagged mouse heparanase-2 protein produced by in vitro translation in HeLa lysate; b60 values from Kiyan et al. concern their protein (protein, UniProt B2RY83 1-592, looked up)
chain: MRVLCAFPEAMASSSSRPPSCLALVALFLALLLHLSLSFHAGNRRPLPVDRATGLKEKTLILLDVSTKNPVRTVNENFLSLQLDPSIIHDGWLDFLSSKRLVTLARGLSPAFLRFGGKRTDFLQFQNLRNPAKSRGGPGPDYYLKNYEDDIVRSDVALDKQKGCKIAQHPDVMLELQREKASQMHLVLLKEQYSNTYSNLILTARSLDKLYNFADCSGLHLIFALNALRRNPNNSWNSSSALSLLKYSASKKYNISWELGNEPNNYRSIHGRAVNGSQLGKDYIQLKSLLQPIRVYSRASLYGPNIGRPRKNVIALLDGFMKVAGSTVDAVTWQHCYIDGRVVKVMDFLKTRLLDTLSDQIRKIQKVVNTYTPGKKIWLEGVVTTSAGGTNNLSDSYAAGFLWLNTLGMLANQGIDVVIRHSFFDHGYNHLVDQNFNPLPDYWLSLLYKRLIGPKVLAVHVAGLQRKPRPGRVIRDKLRIYAHCTNHHNHNYVRGSITLFIINLHRSRKKIKLAGTLRDKLVHQYLLQPYGQEGLKSKSVQLNGQPLVMVDDGTLPELKPRPLRAGRTLVIPPVTMGFYVVKNVNALACRYR
modifications: full-length His tag
notes: His-tagged mouse heparanase-2 protein produced by in vitro translation in HeLa lysate; b60 values from Kiyan et al. concern their protein
Mice induced with LPS
  plasma levels of IL-6: decreased
  plasma levels of TNF-α: decreased
[2]; STZ 50 mg/kg i.p. 5 days, continuous s.c. infusion by osmotic mini pump from 8 weeks after STZ for 4 weeks, sacrificed at 12 weeks, n ≥ 5, Figure 6C
  urinary albumin creatinine ratio: significantly ameliorated
[2]; STZ model, 12 weeks, qPCR, Figure 6D
  cortical HPSE1 mRNA expression: unaltered
[2]; STZ model, 12 weeks, qPCR, Figure 6E
  cortical TNF-α mRNA expression: unaltered
[2]; STZ model, 12 weeks, qPCR, with versus without treatment, Figure 6F
  cortical IL-6 mRNA expression: did not show a significant difference
[1]; Figure 4, HS from bovine kidney coated plates, remaining HS detected with JM403, absorbance 450 nm
  dose response inhibition of recombinant human HPSE1: dose-dependent inhibition of HPSE1 activity
[3]; 80 µg LPS i.p., repeated i.v. injection at 12 h intervals starting 6 h after LPS, 48 h, n ≥ 4, Figure 5B
  plasma creatinine levels: significantly ameliorated
[3]; 80 µg LPS i.p., repeated i.v. injection at 12 h intervals starting 6 h after LPS, 48 h, n ≥ 4, Figure 5C
  urinary albumin creatinine ratio: significantly ameliorated; also recorded: dose response inhibitory effect
[3]; 80 µg LPS i.p., repeated i.v. injection at 12 h intervals starting 6 h after LPS, sacrificed 48 h after LPS, mean ± SEM, n ≥ 4, Figure 5A
  blood urea nitrogen (BUN): significantly ameliorated; also recorded: dose response inhibitory effect
[3]; LPS model, 2 days, qPCR, GAPDH housekeeping, Figure 5D
  cortical HPSE1 mRNA expression: unaltered
[3]; LPS model, 2 days, qPCR, Figure 5E
  cortical TNF-α mRNA expression: unaltered
[3]; LPS model, 2 days, qPCR
  cortical IL-6 mRNA expression: decrease
[3]; LPS model, 2 days, qPCR, listed as HPSE2
  cortical IL-6 mRNA expression: near-significantly decreased

Reference: paper PMC10172501, “Heparanase-2 protein and peptides have a protective effect on experimental glomerulonephritis and diabetic nephropathy” (Frontiers in Pharmacology, 2023)
